{"source": "the DeepSol protein solubility set"}
{"assay": "soluble on expression in E. coli; label from the status in PepcDB or PDB records"}
{"sequence": "MTHQTHTIAESNNFIVLDKYIKAEPTGDSYQSESDLERELIQDLRNQGYEFISVKSQSAMLANVREQLQNLNGVVFNDSEWRRFTEQYLDNPSDGILDKTRKIHIDYICDFIFDDERLENIYLIDKKNLMRNKVQIIQQFEQAGSHANRYDVTILVNGLPLVQIELKKRGVAIREAFNQIHRYSKESFNSENSLFKYLQLFVISNGTDTRYFANTTKRDKNSFDFTMNWAKSDNTLIKDLKDFTATCFQKHTLLNVLVNYSVFDSSQTLLVMRPYQIAATERILWKIKSSFTAKNWSKPESGGYIWHTTGSGKTLTSFKAARLATELDFIDKVFFVVDRKDLDYQTMKEYQRFSPDSVNGSENTAGLKRNLDKDDNKIIVTTIQKLNNLMKAESDLPVYNQQVVFIFDECHRSQFGEAQKNLKKKFKRYYQFGFTGTPIFPENALGSETTASVFGRELHSYVITDAIRDEKVLKFKVDYNDVRPQFKSLETETDEKKLSAAENQQAFLHPMRIQEITQYILNNFRQKTHRTFPGSKGFNAMLAVSSVDAAKAYYATFKRLQEEAANKSATYKPLRIATIFSFAANEEQNAIGEISDETFDTSAMDSSAKEFLDAAIREYNSHFKTNFSTDSNGFQNYYRDLAQRVKNQDIDLLIVVGMFLTGFDAPTLNTLFVDKNLRYHGLMQAFSRTNRIYDATKTFGNIVTFRDLERSTIDAITLFGDKNTKNVVLEKSYTEYMEGFTDAATGEAKRGFMTVVSELEQRFPDPTSIESEKEKKDFVKLFGEYLRAENILQNYDEFATLKALQQIDLSDPVAVEKFKAEHYVDDEKFAELQTIRLPADRKIQDYRSAYNDIRDWQRREKEAEKKEKSTTDWDDVVFEVDLLKSQEINLDYILGLIFEHNRQNKGKGEMIEEVKRLIRSSLGNRAKEGLVVDFIQQTNLDDLPDKASIIDAFFTFAQREQQREAEALIKEENLNEDAAKRYIRTSLKREYATENGTELNETLPKLSPLNPQYKTKKQAVFQKIVSFIEKFKGVGGKI", "soluble on expression in E. coli": "soluble"}
{"sequence": "RPAPLWAVVADAAVQPAMAAGNDDFETARALDTARELVAGLREGVDSLGGDVAEFKAAIPQHNFEQICDGCFAPIDPGVEPDYVVAHRVSCCMIYHSPTAGKCTSCPHQDKDVRKNALIAASESF", "soluble on expression in E. coli": "not soluble"}
{"sequence": "QVQLQESGGGLVQPGGSLRLSCAASGFAFSGYAMSWVRQAPGKGLEWVSGINRDGSTSYTAPVKGRFTISRDNAKNILYLQMNSLRPEDTAVYYCAKWLGGRDWYDRGQGTQVTVS", "soluble on expression in E. coli": "soluble"}
{"sequence": "MGSDKIHHHHHHMSDALLNAGRQTLMLELQEASRLPERLGDDFVRAANIIIHCEGKVIVSGIGKSGHIGKKIAATLASTGTPAFFVHPAEALHGDLGMIESRDVMLFISYSGGAKELDLIIPRLEDKSVALLAMTGKLHSPLGRAAKAVLDISVEREACPMHLAPTSSTVNTLMMGDALAMAVMQARGFNEEDFARSHPAGALGARLLNNVHHLMRQGDAIPQVMLATSVMDAMLELSRTGLGLVAVCDEQHVVKGVFTDGDLRRWLVGGGALTTPVSEAMTPNGITLQAQSRAIDAKELLMKRKITAAPVVDENGKLTGAINLQDFYQAGII", "soluble on expression in E. coli": "not soluble"}
{"sequence": "MGSDKIHHHHHHMEAIQVASVKDNFVKTLEKIRKKHGVDIIALFAIRQSLAIHVINSADNPVSFSAGTIFNLTLTPLVEEFLFNVKTFENHPQKTRFALVENVQWELYIPVVFKEFPTGFVYVASKKKRDAEKTEGIIRDLQDFLKAHGLEYYFLEYSVVLDQLLTTVAILIDRLFSRVSRYTLNHIYNVAFWAEEIGKIVGLDEKRLAKLYLAGLLHDIGKVYIDERILNKEGRLTLQEYQEMKKHVDYSYNMVKDLMIWDIEDDVALWVVQHHEKFDGSGYPFGLKEEEITPEGRILKIADTLDAMLSPRSYRNPFPLDDVIKEIERLRGKDFDPLLADLTVDLLREKKESLGLFEGRILPATLIAGEGIHEGILRKNDGYHVFISDYV", "soluble on expression in E. coli": "not soluble"}
{"sequence": "MCGRFTLTVDLLALQDRFHFRYQGSLTPRFNIAPGQDVLTIVAEGGERVGKMMRWGLVPFWAKDARIGAKMINARAETVDEKASFRHAFKRRRCLILADGFFEWKKEGTKKVPYRFTLKTGEPFAFAGLWERWEGASDPIETCTIMTTKANELIAPIHDRMPVMLPYERHDDWLDPRLDDSEYLKSLLSPYPSGEMRMYEVAPLVNSPKNDVIACIEPVDSRSMEGT", "soluble on expression in E. coli": "not soluble"}
{"sequence": "ESYWRSRMIDAVTSDEDKVAPVYKLEEICDLLRSSHVSIVKEFSEFILKRLDNKSPIVKQKALRLIKYAVGKSGSEFRREMQRNSVAVRNLFHYKGHPDPLKGDALNKAVRETAHETISAIFSEENG", "soluble on expression in E. coli": "soluble"}
{"sequence": "MRGSHHHHHHGSACELVREMEGVDYLADERKKAGFDVDEMKIVWAGSRHDFELTDRISKLVASDPGFSKEGRTMLPRKELFKNTLRKAAYAWKRIIELRLSQEEATMLRRYVDEPAFTDLHWGMFIPAIKGQGTDKQQEKWLPLAYKMQIIGCYAQTELGHGSNVQGLETTATFDPQTDEFVIHSPTLTSSKWWPGGLGKVSTHAVVYARLITDGKDYGVNGFIVQLRSLEDHKPLPGVTVGDIGMKFGNGAYNSMDNGVLSFDHVRIPRDQMLMRVSQVTKEGKYVQSDIPRQLLYGTMVYVRQSIVADASLAMSRAVCIATRYSAVRRQFGSQNGGQETQVIDYKTQQNRLFPLLASAYAFRFVGEWLKWLYTDVTQRLAANDFSTLPEAHACTAGLKSLTTSATADGIEECRKLCGGHGYLCSSGLPELFAVYVPACTYEGDNVVLQLQVARFLMKTISQLGTGKKPVGTVSYMGRIEHLMQCRSDVKQAEDWLKPSAVLEAFEARSARMSVACAKNLSKFENQEEGFAELAADLVEAAVAHCQLIVVSKYIEKLQQNIPGKGVKQQLEVLCGIYSLFILHKHQGDFLGTGYITSKQGSLANDQLRALYSQLRPNAVSLVDAFNYTDHYLGSILGRYDGNVYPKLYEAAWKDPLNKSDIADGFHEYIRPLLKQQLRTAKL", "soluble on expression in E. coli": "soluble"}
{"sequence": "MEPVTSSEREAELERELDLLRKELNIEQKMNSELKRLMIATLSDELQGQVEALTEDKVRLAHRVDEYMGKLMVEDEESDRLRIDRDVWKCKFLAQSIRCDELTSKNEYLLKTLVGIQQAVKTKNVTSDEISDFTQLDLQPLFHRSPCEERVRPITAKYTNLTIACCKNCMGRDIQLL", "soluble on expression in E. coli": "not soluble"}
{"sequence": "MYGSEGGAMRIVAGVGENRNMERAASLADFEVDLVHSEEEFIEELRRGAAAYVRGSLPAANIMAELKKGGPLNRASWIEVGANGFLLAPVGIDEGRTVDDRFKIAVSASEFLRKTGEEPRVGVISGGRRGDLGRSPEVDRSIHEGEFLTSMIKDKYRVRHYHILIEEAVADGCNVIIAPDGITGNLIFRSLVLVGTARSYGAVALGFDGIFVDTSRSQTAEGYLRALKFAHWLARGWNEDNE", "soluble on expression in E. coli": "soluble"}
{"sequence": "MGQFYCLHCDRYFSNVSVRDDHFKTKKHKKRVNMMMGQAPHSQLDADLAGGMGMPDNGPKLMSNLVFTELRKPETEDLPGMGQFNCLLCHRNFSNASVMDYHFKTKKHKKRVKKIERPAPHSQLDADLAGGMGMPDNGPKLMSA", "soluble on expression in E. coli": "not soluble"}
{"sequence": "MSLEAKKSKAIVFSGVNQIELREVTLKPVSSTDVLVETWWSSISTGTEKMALNGLIPSPPFIFPFIPGYETVGRIVEAGDHVNQGLIGKFAYVAGSFGYEDVNAAFGGASQFIVCPVESLTVLDGIANPQCGIALPLGATALHIVDLAEVKNRKVLVLGQGAVGILAAELAKRFGASLVAVTEPHQRRLDISTSDIKVNPEKQDVSVALAGHEFDVLIDSTGIMSAIETGLRFLKFHGKVIFGGYYQRMNIDYSQAFNKELSFIAARQWAKGDLHRVRELIAAGKINAEKIFTHQCTVDDNLMEAYMQAFSDSDCLKMIIHWKHGNEAGEHFPTCNTANEGHHHHHH", "soluble on expression in E. coli": "soluble"}
{"sequence": "MSLNSISHIPKAEIHVHLEATITPSLCRKFAKRNKVILSDDFFGSEYAYQWEDFYDFLKKYDIVTSVIHTPEDYYELTYAYLKECASHNVLYVEAMVSSTHAKAKGMTYQSFLDSIQEASLNAERDFGIVSRYLMNGIRHLGPESVQGTAEEVLKNPHPAIVGFGLAGDELHFPPHLFSKTFDMLKEENFPITVHAGEWDGPENIRKAINLLHPTRLGHGVRSIEDLDLVKEIIEKDIVLETCPTSNIATKIYENYENHPVKKLHELGAKVTVNSDDPPFFNATIQGEYEAMSKIGFADDVLISMTRNAIEYSFLDNQKKKEVLTKLNEGHHHHHH", "soluble on expression in E. coli": "soluble"}
{"sequence": "MTNVCDLTDRKCKPCEGGVPPLEMEEAEKLLKQLEQGWQLADNKISRTFSFKNYYQTMAFVNAIAWVSHREDHHPDMMVGYDWCRVEYMTHAIGGLSENDFICAAKVDMLFKS", "soluble on expression in E. coli": "not soluble"}
{"sequence": "MGLGRQSLNIMTFSGQELTAIIKMAKSMVMADGKIKPAEIAVMTREFMRFGILQDQVDLLLKASDSIEASQAVALIARMDEERKKYVASYLGVIMASDGDIDDNELALWTLISTLCGLPTMTVMEAINNMKNL", "soluble on expression in E. coli": "soluble"}
{"sequence": "MRLPCEVVFARYKANAGVNPKPTKSQKGFVILQKLRQTPPQYQITVAVAGDKTGNKFELNKPPIILDKFIAQGKTTITFQTTPAVMVCISKANPEALAQLIEAIRKIVKGENVDIEKVKVKSSDFKPTTITVNNQATYKKQMQSCSEFLKTLKIEPIDLRRPDKAWRFCHNLTRLTLNGNPIGAHNRDLDVFSKLKQLQSLEMRSCSLELIPVPAMCTMFRELPTSISLLDFGDNHLSIFPPIFHLKQLKIINAAHNAIKYLPSRIGVLQNLNTIDVSNNLMTALPYVFSKIPSIEHVGINANDQMVRLEEEIGPIFIRRLLTKVDNIEYTHEGGVDKLGTIAANAIHREECSKSMKFGRQFLPLSLRFDMDDLMFEKPGISSLELCTGCVRLRHIRYIRPLIIQSRQIANSVDVIGRFVTFDRLLCIDCYRRTTSTNNGEPPFQCDYFQFAV", "soluble on expression in E. coli": "not soluble"}
{"sequence": "SVMYEEDFVLNSRGMKLFTCVWKPVKQEPKALLFLCHGYAMESSITMNSAATRLANAGFAVYGMDYEGHGKSEGLNGYISNFDDLVDDVSNHYSTICEREENKGKMRFLLGESMGGAVVLLLARKKPDFWDGAVLVAPMCKLADEIKPHPVVISILIKLAKFIPTWKIVPGNDIIDIAIKEPHIRNQVRENKYCYKGRPRLNTAYQLLLVSLDLEKNLHQVSIPFIVLYGEDDKVTDKSISKMLYEVASSSDKTFKLYPKMWHALLYGETNENSEIVFGDIINWLEDRATDSNGGLESQLKHKHDGFLKHK", "soluble on expression in E. coli": "soluble"}
{"sequence": "MGSDKIHHHHHHMDDGELEEVFFDEIETIAGKIYLGRIEKIVPGLEAAFVKIGKGRNAFLKLSEINEAYRKTVLKGQEVKEGQKILVQVKKDASGKKGPQVTPQIGIADRFVVIFPFKKVIGVSRKIEDASERRRLRTIAFSLRKKYGVGVIMRTAAEGVDEEEIIKNFERALEKWNQVLQKFRRSRKPKLLYEEDPVEQIIKEKVNSKIDKLIYNDRSLLETLQKYLQNLPKKPEIEYVEGDLFEKFSVYERLKKLLSRTVPLKSGGNIVIDRTEALTVIDVNSESYTDAENQEELALKTNMEAIEEIVRQLILRNIGGIVVIDFIKQKDPKSYEKLLSRFKEVAKRDGTRIEIFGFTNLGLLEITRKRTTRPLDTLLFTRCPVCSGTGKVLSQKILLKRIREDLKKLKDFEEVTLKVHPNMSGYFKREDIKKLQKEFKVKLNLDYGWHDPNSYEIKAKTKKGGK", "soluble on expression in E. coli": "not soluble"}
{"sequence": "DVNFILTFPTGYGKTTLSLEIVRMIDLKPTQNFSRLIHVVPTRSLAKDIQNSACERGLGFAVQYSFTPSHIKSPLFLAKFIITTYDSFLLNLYKASIGEPFSYHGHYDLPRFGIYTSLVHFDEFHLMNEGNSWTSLLGAVRHLSKVGVNMILSSATPSKSVEEELIRMMENRKVVRLAVVNEYGESVKNRNCV", "soluble on expression in E. coli": "not soluble"}
{"sequence": "KKDFTWSSTVTFTANKEKIKSLIEGQDMMFNAKKGDMVFKVGEGVGSFYRYKVLGIWQYSEKETAALFGCEPGDIKLDLPSVKKDGNGYYYMNPEGERVDITAENPYGVRADYDRQVIGRNTPDWTLGFKNNFRYKDFDLSVFLYARWGQMMNYGSVIGKYSPNPDYNIPTYFTYYDKTIEADQDVLFYAIDKSKDRSAYEGYDSMYYVDGSFFKLKNVTLGYTLPGKLTKRFGISNLRVYATMTNLFTYSPNKYVKNYDPEMNGSINFPLSRDCIFGLNLTF", "soluble on expression in E. coli": "not soluble"}
